# Results published in article PMC4964276 (The Biochemical journal, 2016).
# Target: RIIα-D/D(1–44) used for ITC (human, UniProt P13861 1-44)
# Test: ITC
# Chain of RIIα-D/D(1–44) used for ITC (P13861 1-44): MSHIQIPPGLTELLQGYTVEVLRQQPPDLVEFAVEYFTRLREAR
binder,measurement,value
"NGGEPDDAELVRLSKRLVENAVLKAVQQYLEETQNKNKPGE (domain or fragment, human) [AKAP18β(43–83)]",Kd,0.6 nM
same,dH,-22550 ± 171
same,stoichiometry N,0.98 sites
